Measurements from PMC2289016.

Tests used:
[1] = molecular target: rabbit skeletal muscle actin (rabbit) (UniProt P68135); test: actin elongation rate at the barbed end
[2] = molecular target: rabbit skeletal muscle actin (rabbit) (UniProt P68135); test: ultrafiltration

Substance “human platelet profilin (from UniProt P07737 1-140) (natural protein)” has a Kd [1] of 22.5 µM and a Kd [2] of 2.3 µM.
